Measured values: patent US20230357447A1 (JANUX THERAPEUTICS, published 2023)

Legend:
[1] = target: Anti-CD28 scFv (VH-linker 1-VL); assay: phage ELISA: biotinylated anti-CD28 scFv on neutravidin plate, clonal phage supernatant, anti-M13-HRP;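 note: before phage addition, wells were preincubated either with soluble CD28 protein in blocking buffer or with blocking buffer only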
Experimental: (§1) Clonal phage were harvested as crude supernatants and screened via standard enzyme linked immunosorbent assays (ELISAs). […] Prior to the addition of clonal phage, wells were incubated with blocking buffer and CD28 soluble protein or blocking buffer alone. Without washing or aspirating, clonal phage supernatants were then added to the wells and incubated for a short time. Wells were then washed followed by detection of bound phage using a horse radish peroxidase conjugated anti-M13 antibody.

[2] = target: Anti-CD28 scFv (VH-linker 1-VL); assay: phage ELISA: biotinylated anti-CD28 scFv on neutravidin plate, clonal phage supernatant, anti-M13-HRP; wells pre-incubated with soluble CD28 (competitor);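 for Phage binding ELISA CD28 scFv signal in presence of CD28: wells pretreated with soluble CD28 protein in blocking buffer before phage addition, no wash in between, reference wells got blocking buffer only, bound phage detected after washing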
Experimental: as §1

Chain of Anti-CD28 scFv (VH-linker 1-VL) (scFv, as listed by the source): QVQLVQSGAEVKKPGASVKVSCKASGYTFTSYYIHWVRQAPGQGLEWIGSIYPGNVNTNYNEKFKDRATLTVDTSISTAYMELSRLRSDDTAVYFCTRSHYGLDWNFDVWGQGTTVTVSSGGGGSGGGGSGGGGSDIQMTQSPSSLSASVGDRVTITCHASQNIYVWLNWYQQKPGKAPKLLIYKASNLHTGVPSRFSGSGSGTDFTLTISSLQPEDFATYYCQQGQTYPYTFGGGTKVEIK

B1: Phage-447 (peptide)
peptide: MDWCPRDRWDVCYY
notes: Clonal phage from the Peptide-9 library
[1]
  Phage binding ELISA CD28 scFv signal: 0.074
[2]
  Phage binding ELISA CD28 scFv signal in presence of CD28: 0.073

B2: Phage-443 (peptide)
peptide: MDWCPMTRWNDCYF
notes: as for B1
[1]
  Phage binding ELISA CD28 scFv signal: 0.671
[2]
  Phage binding ELISA CD28 scFv signal in presence of CD28: 0.078

B3: Phage-436 (peptide)
peptide: MDWCPRDRWADCFN
notes: as for B1
[1]
  Phage binding ELISA CD28 scFv signal: 1.35
[2]
  Phage binding ELISA CD28 scFv signal in presence of CD28: 0.08

B4: Phage-440 (peptide)
peptide: MDWCPRDRWVDCFN
notes: as for B1
[1]
  Phage binding ELISA CD28 scFv signal: 0.911
[2]
  Phage binding ELISA CD28 scFv signal in presence of CD28: 0.132

B5: Phage-446 (peptide)
peptide: MDWCPRDRWDDCFN
notes: as for B1
[1]
  Phage binding ELISA CD28 scFv signal: 0.45
[2]
  Phage binding ELISA CD28 scFv signal in presence of CD28: 0.077

B6: Phage-441 (peptide)
peptide: MDWCPRDRWDDCFF
notes: as for B1
[1]
  Phage binding ELISA CD28 scFv signal: 0.899
[2]
  Phage binding ELISA CD28 scFv signal in presence of CD28: 0.183

B7: Phage-437 (peptide)
peptide: MDWCPVDRWADCFN
notes: as for B1
[1]
  Phage binding ELISA CD28 scFv signal: 1.16
[2]
  Phage binding ELISA CD28 scFv signal in presence of CD28: 0.315

B8: Phage-435 (peptide)
peptide: MDWCPRDRWVDCYA
notes: as for B1
[1]
  Phage binding ELISA CD28 scFv signal: 1.48
[2]
  Phage binding ELISA CD28 scFv signal in presence of CD28: 0.403

B9: Phage-434 (peptide)
peptide: IVWCPTTQWNRCAT
notes: as for B1
[1]
  Phage binding ELISA CD28 scFv signal: 0.067
[2]
  Phage binding ELISA CD28 scFv signal in presence of CD28: 0.083

B10: Phage-442 (peptide)
peptide: IYWCPIDRWNDCYN
notes: as for B1
[1]
  Phage binding ELISA CD28 scFv signal: 0.867
[2]
  Phage binding ELISA CD28 scFv signal in presence of CD28: 0.164

B11: Phage-431 (peptide)
peptide: MAWCPADQWHECFN
notes: as for B1
[1]
  Phage binding ELISA CD28 scFv signal: 1.84
[2]
  Phage binding ELISA CD28 scFv signal in presence of CD28: 0.456

B12: Phage-445 (peptide)
peptide: MDWCPRARWHDCFF
notes: as for B1
[1]
  Phage binding ELISA CD28 scFv signal: 0.497
[2]
  Phage binding ELISA CD28 scFv signal in presence of CD28: 0.138

B13: Phage-439 (peptide)
peptide: MDWCPRDRWDVCFA
notes: as for B1
[1]
  Phage binding ELISA CD28 scFv signal: 0.924
[2]
  Phage binding ELISA CD28 scFv signal in presence of CD28: 0.096

B14: Phage-428 (peptide)
peptide: MNWCPSTMWNRCLT
notes: as for B1
[1]
  Phage binding ELISA CD28 scFv signal: 0.065
[2]
  Phage binding ELISA CD28 scFv signal in presence of CD28: 0.07

B15: Phage-438 (peptide)
peptide: MDWCPMSRWAFCFD
notes: as for B1
[1]
  Phage binding ELISA CD28 scFv signal: 1
[2]
  Phage binding ELISA CD28 scFv signal in presence of CD28: 0.115

B16: Phage-432 (peptide)
peptide: IDWCPIIQGLPCFA
notes: as for B1
[1]
  Phage binding ELISA CD28 scFv signal: 0.368
[2]
  Phage binding ELISA CD28 scFv signal in presence of CD28: 0.065

B17: Phage-433 (peptide)
peptide: MAWCPWAQFDECLA
notes: as for B1
[1]
  Phage binding ELISA CD28 scFv signal: 0.071
[2]
  Phage binding ELISA CD28 scFv signal in presence of CD28: 0.078

B18: Phage-448 (peptide)
peptide: MAWCPWASFDECLA
notes: as for B1
[1]
  Phage binding ELISA CD28 scFv signal: 0.089
[2]
  Phage binding ELISA CD28 scFv signal in presence of CD28: 0.109
